The target in one data set is PavDREB1E-GST (Prunus avium, UniProt A0A6P5RM44 1-238). The data set is described as follows: EMSA; unlabeled probe competes; Chemiluminescent EMSA kit (Beyotime), manufacturer's instructions; 2 ug PavDREB1E-GST in PavD8 assays; buffer, salt, pH and temperature not stated. The following applies: protein: recombinant; tags: GST; label: biotin; only one strand given.
The next data set addresses PavDREB1E-GST;PavD8-GST (Prunus avium;Prunus avium, UniProt A0A6P5RM44;A0A6P5SVV0 1-238;1-537, |). The data set is described as follows: EMSA; 2 ug PavDREB1E-GST with 2, 4, 6 ug PavD8-GST; PavD8 enhances the shifted band; Chemiluminescent EMSA kit (Beyotime), manufacturer's instructions; 2 ug PavDREB1E-GST in PavD8 assays; buffer, salt, pH and temperature not stated. The conditions noted are these: protein: recombinant;recombinant; tags: GST;GST; label: biotin; only one strand given. For orientation: Mobility shift assays separate free from complexed probe on a gel.

Chain of PavDREB1E-GST;PavD8-GST (chain, as listed by the source |, chain 1 of 2): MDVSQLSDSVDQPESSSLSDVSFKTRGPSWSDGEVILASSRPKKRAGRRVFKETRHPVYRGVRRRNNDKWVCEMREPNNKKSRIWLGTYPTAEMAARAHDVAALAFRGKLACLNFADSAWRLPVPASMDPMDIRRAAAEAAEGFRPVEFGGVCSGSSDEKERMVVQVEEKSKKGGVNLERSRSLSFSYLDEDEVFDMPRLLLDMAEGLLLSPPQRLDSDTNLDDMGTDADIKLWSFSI
Chain of PavDREB1E-GST;PavD8-GST (chain, as listed by the source |, chain 2 of 2): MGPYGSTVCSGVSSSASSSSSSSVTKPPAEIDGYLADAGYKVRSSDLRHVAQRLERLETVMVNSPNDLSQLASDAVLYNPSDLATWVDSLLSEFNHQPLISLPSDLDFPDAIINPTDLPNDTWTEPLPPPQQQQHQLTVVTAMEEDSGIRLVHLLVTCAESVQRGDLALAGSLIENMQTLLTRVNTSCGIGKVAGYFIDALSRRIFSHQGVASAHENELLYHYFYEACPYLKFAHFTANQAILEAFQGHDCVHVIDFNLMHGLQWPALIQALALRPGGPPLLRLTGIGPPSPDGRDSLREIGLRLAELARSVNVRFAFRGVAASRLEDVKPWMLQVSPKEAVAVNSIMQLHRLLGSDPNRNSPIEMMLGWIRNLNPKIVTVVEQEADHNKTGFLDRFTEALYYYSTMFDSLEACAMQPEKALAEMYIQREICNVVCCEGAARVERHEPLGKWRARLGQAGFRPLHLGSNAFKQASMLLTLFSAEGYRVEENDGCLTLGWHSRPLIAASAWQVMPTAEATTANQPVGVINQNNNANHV
Chain of PavDREB1E-GST (A0A6P5RM44 entry or part of it): as the sequence (chain, as listed by the source |, chain 1 of 2) above

B1: ProPavUFGT probe (dsDNA)
DNA 1: ACTTCACGAGCTCATCGACTAATAAGAAAG
DNA 2: CTTTCTTATTAGTCGATGAGCTCGTGAAGT
Regarding B1, the binding result with PavDREB1E-GST and with PavDREB1E-GST;PavD8-GST was “binds” throughout.

B2: ProPavDFR probe (dsDNA)
DNA 1: GTAATTACCACCGACCAAAAAAGAACATTG
DNA 2: CAATGTTCTTTTTTGGTCGGTGGTAATTAC
On to B2, for which the binding result with PavDREB1E-GST and with PavDREB1E-GST;PavD8-GST was “binds” each time.

B3: ProPavCHS probe (dsDNA)
DNA 1: GGGAAAGAAATTAAGTCGGTAGATGATATT
DNA 2: AATATCATCTACCGACTTAATTTCTTTCCC
Consider B3, for which the binding result with PavDREB1E-GST and with PavDREB1E-GST;PavD8-GST was “binds” in each case.

The values are drawn from PMC12700780, “The PavDREB1E–PavD8–PavHY5 module integrates light and gibberellin signals to regulate sweet cherry anthocyanin biosynthesis”.
